From US20050215503, “HIF oligonucleotide decoy molecules” (published 2005)

B1: decoy 907 double (dsDNA)
DNA 1: GAAATACGTGCGTGTGTACGTGCAGG
DNA 2: CCTGCACGTACACACGCACGTATTTC
B2: decoy 865/866 (dsDNA)
DNA 1: AGCAGACGTGCAGGCA
DNA 2: TGCCTGCACGTCTGCT
B3: 895/896 H4/H4 (dsDNA)
DNA 1: CACCAGCGTACGTGCCTCAGG
DNA 2: CCTGAGGCACGTACGCTGGTG
modifications: PS at 4 linkages from 3' end, both strands
B4: decoy 909 double (dsDNA)
DNA 1: AGCGGACGTGCAGATGCACGTCCTCT
DNA 2: AGAGGACGTGCATCTGCACGTCCGCT
B5: decoy 891/892 (dsDNA)
DNA 1: GGCTGCTGCATACGTGCAGGTC
DNA 2: GACCTGCACGTATGCAGCAGCC
B6: decoy 845/846 (dsDNA)
DNA 1: GAGCGTACGTGCCTCAGG
DNA 2: CCTGAGGCACGTACGCTC
B7: decoy 985 (dsDNA)
DNA 1: CCAGCGTACGTGACTCAGG
DNA 2: CCTGAGTCACGTACGCTGG
B8: decoy 937 (dsDNA)
DNA 1: CCAGCGTAGGTGCCTCAGG
DNA 2: CCTGAGGCACCTACGCTGG
B9: decoy 851/852 (dsDNA)
DNA 1: CGGAGTACGTGACGGAGC
DNA 2: GCTCCGTCACGTACTCCG
B10: decoy 809/810 (dsDNA)
DNA 1: AGGGCCGGACGTGGGGCCCC
DNA 2: GGGGCCCCACGTCCGGCCCT
B11: decoy 885/886 (dsDNA)
DNA 1: TACAGACGTGCAGGTC
DNA 2: GACCTGCACGTCTGTA
B12: decoy 853/854 (dsDNA)
DNA 1: TTGCTTACGTGCGCCCGG
DNA 2: CCGGGCGCACGTAAGCAA
B13: decoy 889/890 (dsDNA)
DNA 1: TGCATACGTGCAGGTC
DNA 2: GACCTGCACGTATGCA
B14: decoy 999 (dsDNA)
DNA 1: CCATGGCACGTGCCTCAGG
DNA 2: CCTGAGGCACGTGCCATGG
B15: decoy 827/828 (dsDNA)
DNA 1: AGGTTACGTGCGGACA
DNA 2: TGTCCGCACGTAACCT
B16: decoy 983 (dsDNA)
DNA 1: CCAGCGTACGTGTCTCAGG
DNA 2: CCTGAGACACGTACGCTGG
B17: 895/896 H3/PS (dsDNA)
DNA 1: CACCAGCGTACGTGCCTCAGG
DNA 2: CCTGAGGCACGTACGCTGGTG
modifications: 895: PS at 3 linkages from 3' end; 896: full PS
B18: decoy 825/826 (dsDNA)
DNA 1: AGGAGACGTGCGAGAA
DNA 2: TTCTCGCACGTCTCCT
B19: decoy 935 (dsDNA)
DNA 1: CCAGCGTAAGTGCCTCAGG
DNA 2: CCTGAGGCACTTACGCTGG
B20: decoy 841/842 double (dsDNA)
DNA 1: AGCGGACGTGCAGAAGTTGCACGTCCTCT
DNA 2: AGAGGACGTGCAACTTCTGCACGTCCGCT
B21: decoy 819/820 double (dsDNA)
DNA 1: GAAATACGTGCGCTTTGTGTGTACGTGCAGGAA
DNA 2: TTCCTGCACGTACACACAAAGCGCACGTATTTC
B22: 895/896 H5/PO (dsDNA)
DNA 1: CACCAGCGTACGTGCCTCAGG
DNA 2: CCTGAGGCACGTACGCTGGTG
modifications: 895: PS at 5 linkages from 3' end; 896: unmodified
B23: decoy 997 (dsDNA)
DNA 1: CCGGGGCACGTGCCCCAGG
DNA 2: CCTGGGGCACGTGCCCCGG
B24: decoy 875/876 (dsDNA)
DNA 1: TGCAGACGTGCAGGTC
DNA 2: GACCTGCACGTCTGCA
B25: decoy 883/884 (dsDNA)
DNA 1: AGAAGACGTGCAGGAT
DNA 2: ATCCTGCACGTCTTCT
B26: decoy 933 (dsDNA)
DNA 1: CCAGCGTATGTGCCTCAGG
DNA 2: CCTGAGGCACATACGCTGG
B27: decoy 869/870 (dsDNA)
DNA 1: AGCAGACGTGCAGGGT
DNA 2: ACCCTGCACGTCTGCT
B28: decoy 903 (dsDNA)
DNA 1: CACCTGCATACGTGGGCTCCA
DNA 2: TGGAGCCCACGTATGCAGGTG
B29: decoy 901 (dsDNA)
DNA 1: CACGTGCATACGTGGGCTCCA
DNA 2: TGGAGCCCACGTATGCACGTG
B30: decoy 879/880 (dsDNA)
DNA 1: GGCTGCTGCAGACGTGCAGGTC
DNA 2: GACCTGCACGTCTGCAGCAGCC
B31: 895/896 PS/PS (dsDNA)
DNA 1: CACCAGCGTACGTGCCTCAGG
DNA 2: CCTGAGGCACGTACGCTGGTG
modifications: full PS both strands
B32: decoy 857/858 double (dsDNA)
DNA 1: GCGGACGTGCGGGAACCCACGTGTAGG
DNA 2: CCTACACGTGGGTTCCCGCACGTCCGC
B33: decoy 817/818 (dsDNA)
DNA 1: CTGCCGACGTGCGCTCCGGAG
DNA 2: CTCCGGAGCGCACGTCGGCAG
B34: decoy 887/888 (dsDNA)
DNA 1: GGCTGCACCGTACGTGCTGATC
DNA 2: GATCAGCACGTACGGTGCAGCC
B35: 895/896 PS/PO (dsDNA)
DNA 1: CACCAGCGTACGTGCCTCAGG
DNA 2: CCTGAGGCACGTACGCTGGTG
modifications: 895: full PS; 896: unmodified
B36: decoy 863/864 (dsDNA)
DNA 1: AGCAGACGTGCAGGAT
DNA 2: ATCCTGCACGTCTGCT
B37: 895/896 H3/H3 (dsDNA)
DNA 1: CACCAGCGTACGTGCCTCAGG
DNA 2: CCTGAGGCACGTACGCTGGTG
modifications: PS at 3 linkages from 3' end, both strands
B38: 895/896 H2/H2 (dsDNA)
DNA 1: CACCAGCGTACGTGCCTCAGG
DNA 2: CCTGAGGCACGTACGCTGGTG
modifications: PS at 2 linkages from 3' end, both strands
B39: decoy 843/844 (dsDNA)
DNA 1: GTGCATACGTGGGCTCCA
DNA 2: TGGAGCCCACGTATGCAC
B40: 895/896 H6/H6 (dsDNA)
DNA 1: CACCAGCGTACGTGCCTCAGG
DNA 2: CCTGAGGCACGTACGCTGGTG
modifications: PS at 6 linkages from 3' end, both strands
B41: decoy 981 (dsDNA)
DNA 1: CCAGCGTACGTGGCTCAGG
DNA 2: CCTGAGCCACGTACGCTGG
B42: decoy 849/850 (dsDNA)
DNA 1: GCCTACACGTGGGTTCCC
DNA 2: GGGAACCCACGTGTAGGC
B43: decoy 861/862 (dsDNA)
DNA 1: CTAATACGTGCCGCTG
DNA 2: CAGCGGCACGTATTAG
B44: decoy 811/812 (dsDNA)
DNA 1: ACGCTGAGTGCGTGCGGGAC
DNA 2: GTCCCGCACGCACTCAGCGT
B45: decoy 823/824 (dsDNA)
DNA 1: TGCATACGTGGGCTCCAACAG
DNA 2: CTGTTGGAGCCCACGTATGCA
B46: 895/896 H5/H5 (dsDNA)
DNA 1: CACCAGCGTACGTGCCTCAGG
DNA 2: CCTGAGGCACGTACGCTGGTG
modifications: PS at 5 linkages from 3' end, both strands
B47: decoy 881/882 (dsDNA)
DNA 1: GGCTGCAGGAGACGTGGAGAA
DNA 2: TTCTCCACGTCTCCTGCAGCC

Assays:
Settings in all cases: protein: extract; tags: none (endogenous, nuclear extract)
[1] = target: T1, HIF-1 (HIF-1alpha/HIF-1beta (ARNT) heterodimer) (UniProt Q16665;P27540 Q16665:1-826,P27540:2-789); assay: competition; TransAM; two sites
Description: (§1) To assess the relative affinities of oligonucleotides for a HIF-1α containing complex, the HIF-1 TransAM assay (Active Motif, Catalog # 47096) was utilized. The assay was performed according to manufacturer's instructions. Briefly, a double-stranded oligonucletide containing the hypoxia response element (HRE) was immobilized on a 96-well plate. A nuclear extract containing HIF-1α complexes was incubated and allowed to bind to the immobilized oligonucleotide. The unbound material was washed away and the bound HIF-1α detected using an antibody that specificially recognizes HIF-1α. The anti-HIF-1α antibody was detected by a secondary antibody labeled with horseradish peroxidase (HRP), and the amount of HRP in each well was measured using a calorimetric substrate reaction and read using a microplate spectrophotometer.
(§2) The ability of candidate decoy molecules to compete for binding of HIF-1α to the HRE element-immobilized on the plate were measured and compared to reveal relative binding affinities. Candidate decoys were added in increasing molar ratios (relative to the amount of oligo immobilized on the plate) to compete for binding to the HIF-1α containing complexes. The amounts of decoys added to the assay included 0.625, 1.25, 2.5, 5, 10 and 20 fold molar excess. A well containing a competing decoy able to bind HIF-1α with high affinity would give a lower absorbance reading as compared to a decoy with low affinity for HIF-1α. All potential decoys were then compared and ranked in order to assess their relative binding affinities.
(§3) The screen was conducted using different decoy concentrations. For each UV absorbance reading, normalization was done by calculating the ratio of absorbance readings of sample vs. wild type control. The bigger ratio represents less competition of binding with HIF-1α when compared with wild-type control. The smaller (smaller than 1.0 or close to 1.0) ratios represent better binding or better competition.

[2] = target: T1, HIF-1 (HIF-1alpha/HIF-1beta (ARNT) …); assay: competition; TransAM
Description: as §1, §2, §3

[3] = target: T1, HIF-1 (HIF-1alpha/HIF-1beta (ARNT) …); assay: competition; 2.5-fold molar excess

T1 sequence (Q16665 whole entry, chain 1 of 2): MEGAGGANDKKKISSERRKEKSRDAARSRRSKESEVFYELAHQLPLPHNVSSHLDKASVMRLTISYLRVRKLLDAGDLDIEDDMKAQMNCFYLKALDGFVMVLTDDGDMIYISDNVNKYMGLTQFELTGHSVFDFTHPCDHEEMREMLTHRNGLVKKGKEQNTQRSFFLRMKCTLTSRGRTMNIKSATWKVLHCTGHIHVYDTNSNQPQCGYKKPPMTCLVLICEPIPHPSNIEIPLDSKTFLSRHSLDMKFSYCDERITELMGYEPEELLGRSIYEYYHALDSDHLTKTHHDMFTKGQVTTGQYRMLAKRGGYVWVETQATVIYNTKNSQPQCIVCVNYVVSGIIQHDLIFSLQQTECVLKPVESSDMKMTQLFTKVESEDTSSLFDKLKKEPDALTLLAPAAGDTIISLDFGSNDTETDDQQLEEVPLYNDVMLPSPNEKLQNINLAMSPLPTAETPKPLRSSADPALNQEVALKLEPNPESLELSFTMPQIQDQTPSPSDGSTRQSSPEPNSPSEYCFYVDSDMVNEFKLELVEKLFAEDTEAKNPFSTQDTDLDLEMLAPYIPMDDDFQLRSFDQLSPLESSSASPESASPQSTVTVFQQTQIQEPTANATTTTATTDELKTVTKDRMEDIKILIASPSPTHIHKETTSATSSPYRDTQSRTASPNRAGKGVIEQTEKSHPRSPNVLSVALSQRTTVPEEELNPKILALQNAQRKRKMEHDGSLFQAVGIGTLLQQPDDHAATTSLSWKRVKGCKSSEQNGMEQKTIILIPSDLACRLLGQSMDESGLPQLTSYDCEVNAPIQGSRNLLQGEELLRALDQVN
T1 sequence (P27540 2-789, chain 2 of 2): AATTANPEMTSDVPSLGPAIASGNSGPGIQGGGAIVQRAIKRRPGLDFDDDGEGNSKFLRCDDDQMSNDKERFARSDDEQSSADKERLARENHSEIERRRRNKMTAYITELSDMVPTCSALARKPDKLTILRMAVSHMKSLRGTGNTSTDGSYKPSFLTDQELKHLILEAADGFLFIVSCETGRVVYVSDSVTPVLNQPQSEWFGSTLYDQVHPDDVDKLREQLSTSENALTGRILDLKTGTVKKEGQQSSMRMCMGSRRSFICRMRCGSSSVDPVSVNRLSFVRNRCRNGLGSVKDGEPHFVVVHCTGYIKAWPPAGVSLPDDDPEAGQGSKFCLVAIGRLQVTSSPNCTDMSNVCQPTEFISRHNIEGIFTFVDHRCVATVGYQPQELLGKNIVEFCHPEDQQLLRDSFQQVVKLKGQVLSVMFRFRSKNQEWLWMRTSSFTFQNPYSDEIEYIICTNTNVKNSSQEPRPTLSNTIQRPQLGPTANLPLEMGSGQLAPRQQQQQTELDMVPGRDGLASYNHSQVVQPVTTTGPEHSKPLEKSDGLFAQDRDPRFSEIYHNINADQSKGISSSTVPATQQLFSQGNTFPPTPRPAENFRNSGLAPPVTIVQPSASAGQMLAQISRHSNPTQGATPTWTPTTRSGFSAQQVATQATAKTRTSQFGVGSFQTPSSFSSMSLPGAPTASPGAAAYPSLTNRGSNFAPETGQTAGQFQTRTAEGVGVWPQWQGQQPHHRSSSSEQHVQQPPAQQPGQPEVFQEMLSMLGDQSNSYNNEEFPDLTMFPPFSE

Binder | binding signal [2] [ratio] | further results
B1 |  | binding signal [1]: 0.91 ratio
B2 | 2.56 | 
B3 |  | binding signal [3]: 1.42 ratio
B4 |  | binding signal [1]: 1.72 ratio
B5 | 1.21 | 
B6 | 1.59 | 
B7 | 0.91 | 
B8 | 2.49 | 
B9 | 1.41 | 
B10 | 4.57 | 
B11 | 4.46 | 
B12 | 1.73 | 
B13 | 4.14 | 
B14 | 1.3 | 
B15 | 4.48 | 
B16 | 1.3 | 
B17 |  | binding signal [3]: 1.38 ratio
B18 | 5.1 | 
B19 | 2.43 | 
B20 |  | binding signal [1]: 0.99 ratio
B21 |  | binding signal [1]: 1.16 ratio
B22 |  | binding signal [3]: 1.27 ratio
B23 | 1.28 | 
B24 | 2.63 | 

Binder | binding signal [2] [ratio] | further results
B25 | 4.37 | 
B26 | 3.47 | 
B27 | 2.28 | 
B28 | 1.94 | 
B29 | 1.6 | 
B30 | 1.4 | 
B31 |  | binding signal [3]: 0.98 ratio
B32 |  | binding signal [1]: 2.46 ratio
B33 | 4.81 | 
B34 | 1.89 | 
B35 |  | binding signal [3]: 0.52 ratio
B36 | 2.15 | 
B37 |  | binding signal [3]: 1.33 ratio
B38 |  | binding signal [3]: 0.86 ratio
B39 | 1.7 | 
B40 |  | binding signal [3]: 1.01 ratio
B41 | 1.7 | 
B42 | 2.66 | 
B43 | 2.18 | 
B44 | 3.9 | 
B45 | 4.4 | 
B46 |  | binding signal [3]: 1.34 ratio
B47 | 3.62 | 
